Several values for one entry are separate records, joined by “and”; a condition that tells them apart may be missing. Equal values may be shown once.
B1: purified human Hsp90α-Y313E (natural protein)
chain: not shown
notes: Hsp90α (heat shock protein 90 alpha), human; 2H/13C Ile-labelled for NMR; also called Hsp90-Y313E; Y313E-Hsp90; source: purified

What was measured:
[1] = target: T1, Human wild-type Hsp90 (Hsp90α) (human, UniProt P07900 1-732); assay: ITC; with 2 mM AMPPNP in cell and syringe; Hsp90 (30 µM) in the cell, Aha1 constructs (380-450 µM) in the syringe; 20 mM Tris pH 7.5, 100 mM NaCl, 0.5 mM EDTA, 5 mM MgSO4, 1 mM TCEP, 36 °C; three technical repeats; settings: both partners purified
T1 construct: Heat shock protein 90 alpha, human; also called Hsp90-wt; WT

Hsp90-Y313E [2] = target: T2, Hsp90-Y313E (human, UniProt P07900 1-732, Y313E); assay: as above; settings: both partners purified
T2 construct: Heat shock protein 90 alpha, human, phosphomimetic mutant Y313E; also called Y313E-Hsp90; Hsp90α-Y313E; source: E. coli, purified

Hsp90-Y313E [3] = target: T2, Hsp90-Y313E; assay: ITC; without AMPPNP; Hsp90 (30 µM) in the cell, Aha1 constructs (380-450 µM) in the syringe; 20 mM Tris pH 7.5, 100 mM NaCl, 0.5 mM EDTA, 5 mM MgSO4, 1 mM TCEP, 36 °C; three technical repeats; settings: both partners purified
[4] = target: B1; assay: ITC; Supplementary Table 3, with 2 mM AMPPNP in cell and syringe: Hsp90 30 μM in the cell, Aha1 constructs 380-450 μM in the syringe; 36 °C; 20 mM Tris pH 7.5, 100 mM NaCl, 0.5 mM EDTA, 5 mM MgSO4, 1 mM TCEP; settings: both partners purified
human Hsp90α, wild-type [5] = target: T3, human Hsp90α, wild-type (human, UniProt P07900 1-732); assay: ITC; PEAQ-ITC, 36 °C; Hsp90 in the cell (30 μM), Aha1 constructs in the syringe (380-450 μM); 20 mM Tris pH 7.5, 100 mM NaCl, 0.5 mM EDTA, 5 mM MgSO4, 1 mM TCEP; 2 mM AMPPNP in cell and syringe; three technical repeats; settings: both partners purified
T3 construct: Hsp90α (heat shock protein 90 alpha), human; also called WT; wild-type Hsp90; source: purified

[6] = target: T4, human Hsp90α Y313E (phosphomimetic mutant) (human, UniProt P07900 1-732, Y313E); assay: as above; settings: both partners purified
T4 construct: Hsp90α, human, with the phosphomimetic substitution Y313E (numbering based on human Hsp90α); also called Hsp90-Y313E; source: purified

[7] = target: T4, human Hsp90α Y313E (phosphomimetic …); assay: ITC; PEAQ-ITC, 36 °C; Hsp90 in the cell (30 μM), Aha1 constructs in the syringe (380-450 μM); 20 mM Tris pH 7.5, 100 mM NaCl, 0.5 mM EDTA, 5 mM MgSO4, 1 mM TCEP; no AMPPNP; three technical repeats; settings: both partners purified
[8] = target: T1, Human wild-type Hsp90 (Hsp90α); assay: ITC; without AMPPNP; Hsp90 (30 µM) in the cell, Aha1 constructs (380-450 µM) in the syringe; 20 mM Tris pH 7.5, 100 mM NaCl, 0.5 mM EDTA, 5 mM MgSO4, 1 mM TCEP, 36 °C; three technical repeats; settings: both partners purified
human Hsp90α, wild-type [9] = target: T3, human Hsp90α, wild-type; assay: ITC; PEAQ-ITC, 36 °C; Hsp90 in the cell (30 μM), Aha1 constructs in the syringe (380-450 μM); 20 mM Tris pH 7.5, 100 mM NaCl, 0.5 mM EDTA, 5 mM MgSO4, 1 mM TCEP; no AMPPNP; three technical repeats; settings: both partners purified
[10] = target: the molecule itself; assay: cross-linking; purified Hsp90 (with or without 10 mM AMPPNP, 10 min on ice) mixed with equimolar Aha1-His, 30 min on ice; 1 mM BDP-NHP (lysine-lysine), 30 min at room temperature; 25 mM HEPES pH 7.3, 100 mM NaCl; LC-MS (ReACT, PRM)

Row | Kd [1] [µM] | Kd (Hsp90-Y313E [2]) [µM] | Kd (Hsp90-Y313E [3]) [µM] | Kd (human Hsp90α, wild-type [5]) | Kd [6] | Kd [7] | Binder | further results
1 | 15.6 | 2.3 | 5.5 |  |  |  | Aha1-C (C-terminal domain of human Aha1) (domain or fragment, UniProt O95433 201-338, looked up, Aha1, human, C-terminal domain, amino acids 201-338; source: E. coli, purified) GVKIPTCKITLKETFLTSPEELYRVFTTQELVQAFTHAPATLEADRGGKFHMVDGNVSGEFTDLVPEKHIVMKWRFKSWPEGHFATITLTFIDKNGETELCMEGRGIPAPEEERTRQGWQRYYFEGIKQTFGYGARLF | 
2 |  |  |  |  |  |  | purified Aha1-C (domain or fragment, human, UniProt O95433 201-338, looked up, Aha1, human, C-terminal domain, amino acid 201-338; perdeuterated for NMR; source: purified) GVKIPTCKITLKETFLTSPEELYRVFTTQELVQAFTHAPATLEADRGGKFHMVDGNVSGEFTDLVPEKHIVMKWRFKSWPEGHFATITLTFIDKNGETELCMEGRGIPAPEEERTRQGWQRYYFEGIKQTFGYGARLF | fold reduction of Kd against wild-type Hsp90 (both with AMPPNP) [4]: ~7 fold; fold reduction of Kd with AMPPNP against without AMPPNP [4]: > 2 fold
3 |  |  |  | 17 µM and 13.3 µM and 16.4 µM and 15.6 µM | 2.02 µM and 2.27 µM and 2.62 µM and 2.3 µM | 7.71 µM and 4.59 µM and 4.04 µM and 5.45 µM | human Aha1 C-terminal domain (domain or fragment, UniProt O95433 201-338, looked up, Aha1, human, C-terminal domain (Aha1-C, amino acid 201-338); the ITC methods speak only of 'Aha1 constructs'; source: purified) GVKIPTCKITLKETFLTSPEELYRVFTTQELVQAFTHAPATLEADRGGKFHMVDGNVSGEFTDLVPEKHIVMKWRFKSWPEGHFATITLTFIDKNGETELCMEGRGIPAPEEERTRQGWQRYYFEGIKQTFGYGARLF | 
4 | 4.9 | 8.9 | 11.2 |  |  |  | Aha1-N (N-terminal domain of human Aha1) (domain or fragment, UniProt O95433 1-162, looked up, Aha1, human, N-terminal domain, amino acids 1-162; source: E. coli, purified) MAKWGEGDPRWIVEERADATNVNNWHWTERDASNWSTDKLKTLFLAVQVQNEEGKCEVTEVSKLDGEASINNRKGKLIFFYEWSVKLNWTGTSKSGVQYKGHVEIPNLSDENSVDEVEISVSLAKDEPDTNLVALMKEEGVKLLREAMGIYISTLKTEFTQG | Kd [8]: 6.8 µM
5 |  |  |  | 5.69 µM and 4.69 µM and 4.25 µM and 4.88 µM | 7.97 µM and 8.96 µM and 9.66 µM and 8.86 µM | 11.6 µM and 12.2 µM and 9.96 µM and 11.2 µM | human Aha1 N-terminal domain (domain or fragment, UniProt O95433 1-162, looked up, Aha1, human, N-terminal domain (Aha1-N, amino acid 1-162); the ITC methods speak only of 'Aha1 constructs'; source: purified) MAKWGEGDPRWIVEERADATNVNNWHWTERDASNWSTDKLKTLFLAVQVQNEEGKCEVTEVSKLDGEASINNRKGKLIFFYEWSVKLNWTGTSKSGVQYKGHVEIPNLSDENSVDEVEISVSLAKDEPDTNLVALMKEEGVKLLREAMGIYISTLKTEFTQG | Kd (human Hsp90α, wild-type [9]): 7.2 µM and 6.1 µM and 7.22 µM and 6.84 µM
6 |  |  |  |  |  |  | B1 | binding result [10]: binds
